Blank lines part the entries; values can stand above or below the molecule they belong to.
Key:
canine B cells = details: Veterinary Journal, 2006, vol 171, 556; cited from earlier work
[1] = Tolerability of weekly dosing; type: in vivo; details: weekly dose over 4 weeks
[2] = Half-life of recombinant anti-canine CD20 antibody in beagle dogs (plasma ELISA); type: in vivo
Experimental: The half-life of the recombinant anti-canine CD20 antibody are assessed. In this example, the half-life of antibody CD20-2 (VET305) is assessed by dosing beagle dogs intravenously. Blood is collected for analysis of CD20-2 in plasma samples harvested as whole blood treated with Ethylenediaminetetraacetic acid (EDTA) as the anticoagulant. An enzyme linked immunosorbant assay (ELISA) method is utilized to determine the plasma antibody concentrations. In this assay, a 96-well plate is coated with a rabbit polyclonal antibody raised to the variable domain of the antibody CD20-2. The antibody CD20-2 in standards or in samples is captured by the polyclonal antibody and is detected by an enzyme conjugated anti-dog secondary antibody. A non-linear regression fit of the standards is used to determine the recombinant antibody concentrations in plasma.

[3] = system: B lymphocyte cell population; assay: Depletion of B cells in vivo (CD21 flow cytometry); design: species or system beagle dogs; details: three consecutive doses 2.4 mg/kg to 5.0 mg/kg
Experimental: Three beagle dogs receive three consecutive dosages of the antibody CD20-2 (VET305) ranging from […] to 5.0 mg/kg every 5 days. Blood samples drawn at several time points are centrifuged at 2000 RPM for 5 min. Plasma is removed for assay of the antibody levels. The pellet containing peripheral blood leukocytes and red blood cells is resuspended in a plasma equivalent volume of phosphate saline solution (Dulbecco's Phosphate-Buffered Saline, Mediatech, Cat No. 21-030-CM) for quantitation of lymphocyte populations by flow cytometry. A 0.1 mL volume of the cell preparation is distributed into micro-centrifuge tubes. Labeled monoclonal antibody with specificity for the canine lymphocyte surface marker CD21 is added to the vial to identify the B lymphocyte cell population. An additional sample is included with no reagents for determination of autofluorescence. Cells are incubated with the fluorescent antibody for 30 min. Red blood cell were then lyzed for 15 min using a lysis buffer (Red Blood Cell Lysis Buffer, Biolegend,Cat No. 420301) and then washed prior to analysis on a Becton Dickinson FACS instrument.

Control Cells = assay: FACS binding to control cells; details: antibody 2.5 μg/mL
Experimental: (§1) In the present example, the antibody variants (2.5 μg/mL) are incubated with mammalian cells expressing the recombinant feline CD20 or canine CD20 or control cells. The amount of bound antibody is assessed by detection with a fluorescent-labeled reporter antibody reagent. Several controls are utilized to determine the background fluorescence: (i) CD20 expressing cells are incubated with the conjugated secondary antibody with an isotype antibody, and (ii) Control cells are incubated with the anti-CD20 antibodies.

[4] = molecular target: T1, recombinant canine CD20 expressed in HEK cells (Canis lupus familiaris, UniProt Q3C2E2, A201T/C77Y/G273E/L198V); assay: FACS binding to cells expressing recombinant canine CD20; details: for mean fluorescence, Canine CD20: antibody 2.5 μg/mL
T1 construct: expressed in transfected cells; host or cells: HEK cells
T1 sequence (Q3C2E2 1-297 C77Y/L198V/A201T/G273E): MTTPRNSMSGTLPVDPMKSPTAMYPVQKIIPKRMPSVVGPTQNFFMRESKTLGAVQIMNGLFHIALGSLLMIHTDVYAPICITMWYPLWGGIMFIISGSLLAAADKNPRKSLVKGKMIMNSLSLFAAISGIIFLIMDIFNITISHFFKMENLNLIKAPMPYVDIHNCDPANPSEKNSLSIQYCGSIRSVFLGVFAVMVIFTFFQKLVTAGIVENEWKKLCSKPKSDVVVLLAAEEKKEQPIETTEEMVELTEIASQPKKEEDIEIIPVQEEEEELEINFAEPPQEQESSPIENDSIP
Experimental: as §1, with “The binding of the antibody variants of the present invention raised to canine CD20 can be assessed by FACS analysis for their binding to feline CD20 according to standard immunological techniques (see Veterinary Immunology and Immunopathology 2005, 106:179-196; Brousseau et al., Manual of Immunology Methods, CRC Press, 1998). In” for “In”

[5] = system: feline CD20 expressed in mammalian cells; assay: FACS binding to cells expressing recombinant feline CD20; details: for mean fluorescence, Feline CD20: antibody 2.5 μg/mL; for binding to feline CD20 (in words): mammalian cells
feline CD20 expressed in mammalian cells, sequence (as listed by the source): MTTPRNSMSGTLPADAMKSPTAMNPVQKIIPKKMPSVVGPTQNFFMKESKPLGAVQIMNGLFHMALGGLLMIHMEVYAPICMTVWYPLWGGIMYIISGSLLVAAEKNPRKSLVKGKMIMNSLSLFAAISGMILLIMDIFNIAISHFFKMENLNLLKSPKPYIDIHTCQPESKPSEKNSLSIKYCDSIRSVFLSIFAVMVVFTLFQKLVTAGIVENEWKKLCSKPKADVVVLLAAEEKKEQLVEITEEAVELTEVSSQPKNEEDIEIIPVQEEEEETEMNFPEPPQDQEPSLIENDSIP
Experimental: as §1, with “The binding of the antibody variants of the present invention raised to canine CD20 can be assessed by FACS analysis for their binding to feline CD20 according to standard immunological techniques (see Veterinary Immunology and Immunopathology 2005, 106:179-196; Brousseau et al., Manual of Immunology Methods, CRC Press, 1998). In” for “In”

recombinant canine CD20 = molecular target: T2, recombinant canine CD20 (Canis lupus familiaris, UniProt Q3C2E2, A201T/C77Y/G273E/L198V); assay: Competition experiments (epitope mapping) on CHO cells expressing recombinant canine CD20; type: binding; details: unlabelled competitor 25 μg/mL; for percentage of inhibition (PI), labeled antibody CD20-1: biotin-labeled CD20-1 2 μg/mL; for percentage of inhibition (PI), labeled antibody CD20-2: biotin-labeled CD20-2 2 μg/mL; for percentage of inhibition (PI), labeled antibody CD20-5: biotin-labeled CD20-5 2 μg/mL
T2 construct: are transfected with an expression vector encoding the full-length canine CD20 protein; expressed in transfected cells; host or cells: CHO cells (CHO-DG44)
T2 sequence (Q3C2E2 1-297 C77Y/L198V/A201T/G273E): T1 sequence (Q3C2E2 1-297 C77Y/L198V/A201T/G273E)
Experimental: Competition experiments are performed using standard techniques. Briefly, biotinylated recombinant anti-canine CD20 antibodies are titrated on CHO cells expressing recombinant canine CD20. Cells are first incubated with an excess of unlabelled recombinant anti-canine CD20 antibody (25 μg/mL). Thereafter, cells are incubated with a biotin-labeled antibody at 2 μg/mL. After washing, cells are incubated with streptavidin- phycoerythrin and fluorescence is analyzed by flow cytometry. An irrelevant antibody is used as negative control for inhibition. Results are expressed as a ratio between fluorescence intensity of the cells pre-incubated with the unlabelled antibody and the fluorescence intensity obtained for each biotinylated antibody alone. The percentage of inhibition (PI) is calculated by the following formula: PI=[1−(Experimental-Background)/Biotinylated antibody alone−Background)]×100%.

[6] = molecular target: T3, recombinant canine CD20 expressed in CHO cells (Canis lupus familiaris, UniProt Q3C2E2, A201T/C77Y/G273E/L198V); assay: Binding affinity to recombinant canine CD20 expressed in CHO cells by FACS; details: CHO cells expressing canine CD20
T3 construct: are transfected with an expression vector encoding the full-length canine CD20 protein; expressed in transfected cells; host or cells: CHO cells (CHO-DG44)
T3 sequence (Q3C2E2 1-297 C77Y/L198V/A201T/G273E): T1 sequence (Q3C2E2 1-297 C77Y/L198V/A201T/G273E)
Experimental: The antibody variants of the present invention are compared for their binding affinity to canine CD20. Binding affinity is assessed by measuring binding to the recombinant canine CD20 expressed in CHO cells by FACS analysis as described above.

[7] = multiple doses 2.0 to 5.0 mg/kg

Molecule: Rituximab: a monoclonal antibody to the human CD20 antigen
reactivity with canine B cells (canine B cells): does not react with canine B cells

binding to recombinant canine CD20 (in words) [4]: effective binding
mean fluorescence, Canine CD20 [4]: 2340 mean fluorescence units
percentage of inhibition (PI), labeled antibody CD20-1 (recombinant canine CD20): 0.90%
percentage of inhibition (PI), labeled antibody CD20-2 (recombinant canine CD20): 124.33%
percentage of inhibition (PI), labeled antibody CD20-5 (recombinant canine CD20): 3.69%
B1: CD20-2: anti-canine CD20 antibody; full length HC SEQ ID NO. 38, LC SEQ ID NO. 39 (antibody)
heavy: QVQLQQSRAELVRPGASVTLSCKPSGYTFTDYEVHWVKQTPVHGLEWIGAIDPETGGTADNQKFKGKAILTADKSSSTAYMELRSLTSEDSAVYYCTNFVDVWGTGTTVTVSSASTTAPSVFPLAPSCGSQSGSTVALACLVSGYFPEPVTVSWNSGSLTSGVHTFPSVLQSSGLYSLSSMVTVPSSRWPSETFTCNVAHPASKTKVDKPVPKRENGRVPRPPDCPKCPAPEMLGGPSVFIFPPKPKDTLLIARTPEVTCVVVDLDPEDPEVQISWFVDGKQMQTAKTQPREEQFNGTYRVVSVLPIGHQDWLKGKQFTCKVNNKALPSPIERTISKARGQAHQPSVYVLPPSREELSKNTVSLTCLIKDFFPPDIDVEWQSNGQQEPESKYRTTPPQLDEDGSYFLYSKLSVDKSRWQRGDTFICAVMHEALHNHYTQKSLSHSPGK
light: DVVMSQSPSSLAVSVGEKVTMSCKSSQSLLYSGNQKNYLAWYQQKPGQSPRLLIYWASTRESGVPDRFTGSGSGTDFTLTISSVKAEDLAVFYCQQYYNYPLTFGGGTHLTVLGQPKASPSVTLFPPSSEELGANKATLVCLISDFYPSGVTVAWKADGSPITQGVETTKPSKQSNNKYAASSYLSLTPDKWKSHSSFSCLVTHEGSTVEKKVAPAECS
modifications: canis familiaris/mus musculus
notes: anti-canine CD20 antibody; 39
adverse effects on clinical and behavioral observations or body weights [1]: no adverse effects
tolerability [1]: well tolerated locally and systemically
change of half-life values ([2]; consecutive administration): increase after consecutive administration
elimination half life [2, 7]: one week
plasma antibody concentrations (in words) [2, 7]: increases overtime and persists at significant levels
volume of distribution [2, 7]: approximating plasma volume
plasma antibody concentrations (in words) ([2]; single dose 2.4 mg/kg): high plasma antibody concentrations are achieved in all animals
duration of depletion after the last dose [3]: at least 10 days
B lymphocyte cell percentage after treatment ([3]; every 5 days): decrease in-B lymphocyte cell percentage
mean fluorescence, Control Cells (Control Cells): 49 mean fluorescence units
mean fluorescence, Feline CD20 [5]: 2209 mean fluorescence units
binding to feline CD20 (in words) [5]: bind feline CD20

Kd [6]: 1.2 nM
binding to recombinant canine CD20 (in words) [4]: effective binding
mean fluorescence, Canine CD20 [4]: 2769 mean fluorescence units
percentage of inhibition (PI), labeled antibody CD20-1 (recombinant canine CD20): 107.07%
percentage of inhibition (PI), labeled antibody CD20-2 (recombinant canine CD20): 6.47%
percentage of inhibition (PI), labeled antibody CD20-5 (recombinant canine CD20): 85.88%
B2: CD20-5: anti-canine CD20 antibody; full length HC SEQ ID NO. 40, LC SEQ ID NO. 41 (antibody)
heavy: QVQLKQSGAELVKPGASVKISCKASGYTFTDYYINWVKQRPGQGLEWIGKIGPRSGSIYYNEKFKGKATLTADKSSSTAYMQLRSLTSEDSAVYFCAVLKWGQGTLVTVSSASTTAPSVFPLAPSCGSQSGSTVALACLVSGYFPEPVTVSWNSGSLTSGVHTFPSVLQSSGLYSLSSMVTVPSSRWPSETFTCNVAHPASKTKVDKPVPKRENGRVPRPPDCPKCPAPEMLGGPSVFIFPPKPKDTLLIARTPEVTCVVVDLDPEDPEVQISWFVDGKQMQTAKTQPREEQFNGTYRVVSVLPIGHQDWLKGKQFTCKVNNKALPSPIERTISKARGQAHQPSVYVLPPSREELSKNTVSLTCLIKDFFPPDIDVEWQSNGQQEPESKYRTTPPQLDEDGSYFLYSKLSVDKSRWQRGDTFICAVMHEALHNHYTQKSLSHSPGK
light: DAVMTQIPLTLSVTIGQPASISCKSSQSLLHSDGKTYLNWLLQRPGQSPKRLIYLVSKLDSGVPDRFTGSGSGTDFTLKISRVEAEDLGVYYCWQGTHFPQTFGGGTHLTVLGQPKASPSVTLFPPSSEELGANKATLVCLISDFYPSGVTVAWKADGSPITQGVETTKPSKQSNNKYAASSYLSLTPDKWKSHSSFSCLVTHEGSTVEKKVAPAECS
modifications: canis familiaris/mus musculus
notes: anti-canine CD20 antibody; 41
mean fluorescence, Control Cells (Control Cells): 215 mean fluorescence units
mean fluorescence, Feline CD20 [5]: 2048 mean fluorescence units
binding to feline CD20 (in words) [5]: bind feline CD20

Reference: US9616120B2, “Monoclonal antibodies directed to CD20” (VET THERAPEUTICS, INC., priority 2010, dated 2017)
